In patent US20230331860A1 (Bristol-Myers Squibb, published 2023):
Residue numbers refer to the chain shown, from its start. Numbers in names are those of the source.

Assays:
cynomolgus CD40 [1] = molecular target: T1, cynomolgus CD40 (cynomolgus monkey, UniProt G7PG38 21-193); assay: binding to CD20-positive B cells in cynomolgus monkey whole blood, detected with secondary anti-human IgG1-PE; n=4 donors (same result in mass units)
T1 construct: also called monomeric cynomolgus CD40; monkey CD40 receptors

cynomolgus CD40 [2] = molecular target: T1, cynomolgus CD40; assay: direct binding of AF488-labeled antibody to CD20-positive B cells in cynomolgus monkey whole blood; n=2 donors
human CD40 [3] = molecular target: T2, human CD40 (human, UniProt P25942 21-193); assay: cell-based or functional assay; set-up: IC50, suppression of CHO CD40L-induced IL-6 production by monocyte-derived DCs; n=4 donors (mass units as printed) / IC50, suppression of CHO CD40L-induced TNFα production by monocyte-derived DCs; n=4 donors (mass units as printed): unit not given beside the values
human CD40 [4] = molecular target: T2, human CD40; assay: direct binding of AF488-labeled antibody to CD20-positive B cells in human whole blood; n=4 donors (same result in mass units)
cynomolgus CD40 [5] = molecular target: T1, cynomolgus CD40; assay: direct binding of AF488-labeled antibody to CD20-positive B cells in cynomolgus monkey whole blood; n=2 donors (same result in mass units)
cynomolgus CD40 [6] = molecular target: T1, cynomolgus CD40; assay: binding to CD20-positive B cells in cynomolgus monkey whole blood, detected with secondary anti-human IgG1-PE; n=4 donors
murine CD40 = molecular target: T3, murine CD40 (murine, UniProt P27512 24-193, limits assumed); assay: single-cycle kinetic SPR, CD40 on the surface
T3 construct: also called murine CD40 receptors
T3 sequence (looked up): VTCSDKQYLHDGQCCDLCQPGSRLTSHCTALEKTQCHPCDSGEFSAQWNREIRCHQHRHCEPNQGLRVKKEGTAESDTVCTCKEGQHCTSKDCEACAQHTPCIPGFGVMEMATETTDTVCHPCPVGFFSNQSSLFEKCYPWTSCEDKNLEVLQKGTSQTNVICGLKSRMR

hCD64 [7] = molecular target: T4, hCD64 (human, UniProt P12314 16-288, limits assumed); assay: FcγR binding, SPR (method per paragraph 74)
T4 construct: also called human CD64

cyCD32b = molecular target: T5, cyCD32b (cynomolgus monkey, UniProt A0A140HDP4 43-217); assay: FcγR binding, SPR (method per paragraph 74)
T5 construct: also called cynomolgus CD32b
T5 sequence: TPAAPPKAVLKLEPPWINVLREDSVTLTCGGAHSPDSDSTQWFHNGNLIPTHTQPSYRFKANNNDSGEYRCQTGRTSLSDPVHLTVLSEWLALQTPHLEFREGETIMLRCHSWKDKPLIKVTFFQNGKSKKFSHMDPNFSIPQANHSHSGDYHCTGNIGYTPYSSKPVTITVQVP

hCD32a-R131 = molecular target: T6, hCD32a-R131 (human, UniProt P12318 36-218, limits assumed); assay: FcγR binding, SPR (method per paragraph 74)
T6 construct: Position 131 is the customary allotype numbering; also called hCD32a/FcγRIIa, R131 variant
T6 sequence (looked up): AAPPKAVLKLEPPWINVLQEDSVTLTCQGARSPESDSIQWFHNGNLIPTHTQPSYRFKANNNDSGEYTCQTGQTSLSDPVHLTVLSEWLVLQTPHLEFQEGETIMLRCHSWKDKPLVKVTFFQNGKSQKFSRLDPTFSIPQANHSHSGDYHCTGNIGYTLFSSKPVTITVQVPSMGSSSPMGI

hCD32a-H131 = molecular target: T7, hCD32a-H131 (human, UniProt P12318 36-218, limits assumed); assay: FcγR binding, SPR (method per paragraph 74)
T7 construct: Position 131 is the customary allotype numbering; also called hCD32a/FcγRIIa, H131 variant
T7 sequence (looked up): T6 sequence (looked up) with R132H

hCD32b = molecular target: T8, hCD32b (human, UniProt P31994 43-217, limits assumed); assay: FcγR binding, SPR (method per paragraph 74)
T8 construct: also called hCD32b/FcγRIIb
T8 sequence (looked up): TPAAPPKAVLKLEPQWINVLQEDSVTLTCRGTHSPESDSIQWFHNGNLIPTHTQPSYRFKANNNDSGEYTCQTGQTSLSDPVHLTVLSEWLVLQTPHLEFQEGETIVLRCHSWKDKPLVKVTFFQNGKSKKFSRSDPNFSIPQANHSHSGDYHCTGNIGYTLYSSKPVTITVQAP

cyCD16 = molecular target: T9, cyCD16 (cynomolgus monkey, UniProt Q8SPW2 17-208, limits assumed); assay: FcγR binding, SPR (method per paragraph 74)
T9 construct: also called cynomolgus CD16

cyCD32a = molecular target: T10, cyCD32a (cynomolgus monkey, UniProt A0A140HDN0 30-216); assay: FcγR binding, SPR (method per paragraph 74)
T10 construct: also called cynomolgus CD32a
T10 sequence: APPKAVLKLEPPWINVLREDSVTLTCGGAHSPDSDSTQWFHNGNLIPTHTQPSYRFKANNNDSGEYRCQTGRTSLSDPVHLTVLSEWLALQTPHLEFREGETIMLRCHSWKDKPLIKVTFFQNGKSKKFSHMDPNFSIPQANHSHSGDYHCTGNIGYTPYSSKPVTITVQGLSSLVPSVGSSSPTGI

hCD16a-V158 = molecular target: T11, hCD16a-V158 (human, UniProt P08637 17-208, limits assumed); assay: FcγR binding, SPR (method per paragraph 74)
T11 construct: Position 158 is the customary allotype numbering; also called hCD16a/FcγRIIIa, V158 variant

hCD16a-F158 = molecular target: T12, hCD16a-F158 (human, UniProt P08637 17-208, limits assumed); assay: FcγR binding, SPR (method per paragraph 74)
T12 construct: Position 158 is the customary allotype numbering; also called hCD16a/FcγRIIIa, F158 variant

human CD40 [8] = molecular target: T2, human CD40; assay: cell-based or functional assay
cynomolgus CD40 [9] = molecular target: T1, cynomolgus CD40; assay: cell-based or functional assay
hCD64 [10] = molecular target: T4, hCD64; assay: FcγR binding, SPR (method per paragraph 74); remark: listed apart in the source
human CD40 [11] = molecular target: T2, human CD40; assay: direct binding of AF488-labeled antibody to CD20-positive B cells in human whole blood; n=4 donors
human CD40 [12] = molecular target: T2, human CD40; assay: SPR, antibody captured on protein A chip, monomeric CD40 as analyte
cynomolgus CD40 [13] = molecular target: T1, cynomolgus CD40; assay: as above

T2 sequence (P25942 21-193 limits assumed): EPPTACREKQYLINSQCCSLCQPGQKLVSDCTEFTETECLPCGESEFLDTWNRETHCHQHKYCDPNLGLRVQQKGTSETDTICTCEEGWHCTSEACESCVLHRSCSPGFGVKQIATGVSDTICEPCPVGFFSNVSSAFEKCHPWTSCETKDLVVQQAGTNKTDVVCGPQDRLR
T4 sequence (P12314 16-288 limits assumed): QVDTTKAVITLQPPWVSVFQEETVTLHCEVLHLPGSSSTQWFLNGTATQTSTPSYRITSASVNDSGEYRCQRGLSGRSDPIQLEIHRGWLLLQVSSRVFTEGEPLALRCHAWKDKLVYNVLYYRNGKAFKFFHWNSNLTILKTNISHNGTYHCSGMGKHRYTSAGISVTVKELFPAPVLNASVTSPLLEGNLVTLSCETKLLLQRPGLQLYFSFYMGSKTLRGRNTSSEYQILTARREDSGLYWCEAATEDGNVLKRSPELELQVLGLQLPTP
T9 sequence (Q8SPW2 17-208 limits assumed): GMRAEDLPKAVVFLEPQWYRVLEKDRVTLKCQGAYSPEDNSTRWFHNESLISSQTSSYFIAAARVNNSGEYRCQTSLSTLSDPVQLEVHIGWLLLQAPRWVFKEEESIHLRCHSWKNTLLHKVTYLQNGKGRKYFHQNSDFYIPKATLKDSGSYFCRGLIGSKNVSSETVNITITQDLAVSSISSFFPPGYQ
T12 sequence (P08637 17-208 limits assumed): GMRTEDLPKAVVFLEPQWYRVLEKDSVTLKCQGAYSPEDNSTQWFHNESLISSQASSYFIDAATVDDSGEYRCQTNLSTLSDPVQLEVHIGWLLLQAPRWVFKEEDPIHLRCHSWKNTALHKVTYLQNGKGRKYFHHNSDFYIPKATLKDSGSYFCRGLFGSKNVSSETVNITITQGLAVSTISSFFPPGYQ
T11 sequence (P08637 17-208 F176V limits assumed): as the sequence (P08637 17-208 limits assumed) above, with F160V counted along it

EC50 (cynomolgus CD40 [1]): 0.106 µg/mL
EC50 (cynomolgus CD40 [2]): 1 nM
IC50, suppression of CHO CD40L-induced IL-6 production by monocyte-derived DCs; n=4 donors (human CD40 [3]): 0.08 nM
IC50, suppression of CHO CD40L-induced IL-6 production by monocyte-derived DCs; n=4 donors (mass units as printed) (human CD40 [3]): 11.3
IC50, suppression of CHO CD40L-induced TNFα production by monocyte-derived DCs; n=4 donors (human CD40 [3]): 0.1 nM
IC50, suppression of CHO CD40L-induced TNFα production by monocyte-derived DCs; n=4 donors (mass units as printed) (human CD40 [3]): 13.3
EC50 (human CD40 [4]): 0.13 µg/mL
EC50 (cynomolgus CD40 [5]): 0.149 µg/mL
EC50 (cynomolgus CD40 [6]): 0.7 nM
binding result (murine CD40): no binding
Kd (hCD64 [7]): 17 nM
binding result (cyCD32b): no binding
binding result (hCD32a-R131): no binding
binding result (hCD32a-H131): no binding
binding result (hCD32b): no binding
binding result (cyCD16): no binding
binding result (cyCD32a): no binding
binding result (hCD16a-V158): no binding
binding result (hCD16a-F158): no binding
IC50, inhibition of CD54 upregulation on human B cells in whole blood stimulated by soluble CD40L trimer; n=10 donors (human CD40 [8]): 0.24 nM
IC50, inhibition of CD54 upregulation on human B cells in whole blood stimulated by soluble CD40L trimer; n=10 donors (mass units) (human CD40 [8]): 0.0346 µg/mL
IC50, inhibition of CD86 upregulation on human B cells in whole blood stimulated by soluble CD40L trimer; n=10 donors (human CD40 [8]): 0.24 nM
IC50, inhibition of CD86 upregulation on human B cells in whole blood stimulated by soluble CD40L trimer; n=10 donors (mass units) (human CD40 [8]): 0.0342 µg/mL
IC50, inhibition of human tonsillar B-cell proliferation stimulated by soluble CD40L trimer; n=10 donors (human CD40 [8]): 0.04 nM
IC50, inhibition of human tonsillar B-cell proliferation stimulated by soluble CD40L trimer; n=10 donors (mass units) (human CD40 [8]): 0.0056 µg/mL
IC50, inhibition of tonsillar B-cell proliferation stimulated by CD40L-expressing CHO cells; n=8 donors (human CD40 [8]): 0.28 nM
IC50, inhibition of tonsillar B-cell proliferation stimulated by CD40L-expressing CHO cells; n=8 donors (mass units) (human CD40 [8]): 0.0399 µg/mL
IC50, inhibition of CD86 upregulation on cynomolgus B cells in whole blood stimulated by soluble CD40L trimer; n=8 donors (cynomolgus CD40 [9]): 0.25 nM
IC50, inhibition of CD86 upregulation on cynomolgus B cells in whole blood stimulated by soluble CD40L trimer; n=8 donors (mass units) (cynomolgus CD40 [9]): 0.0364 µg/mL
IC50, inhibition of cynomolgus splenic B-cell proliferation driven by CD40L-expressing CHO cells; n=6 donors (cynomolgus CD40 [9]): 4.5 nM
IC50, inhibition of cynomolgus splenic B-cell proliferation driven by CD40L-expressing CHO cells; n=6 donors (mass units) (cynomolgus CD40 [9]): 0.65 µg/mL
IC50, inhibition of cynomolgus splenic B-cell proliferation driven by CD40L-trimer; n=6 donors (cynomolgus CD40 [9]): 0.19 nM
IC50, inhibition of cynomolgus splenic B-cell proliferation driven by CD40L-trimer; n=6 donors (mass units) (cynomolgus CD40 [9]): 0.0278 µg/mL
fold weaker binding than wild-type human IgG1 control (hCD64 [10]): 100 fold
EC50 (human CD40 [11]): 0.9 nM
Kd (human CD40 [12]): 5.3 nM
koff (human CD40 [12]): 0.0012 s⁻¹
kon (human CD40 [12]): 230000 M⁻¹ s⁻¹
Kd (cynomolgus CD40 [13]): 6.7 nM
koff (cynomolgus CD40 [13]): 0.0016 s⁻¹
kon (cynomolgus CD40 [13]): 240000 M⁻¹ s⁻¹
B1: BMS-986325 (antibody, human IgG1, kappa)
heavy: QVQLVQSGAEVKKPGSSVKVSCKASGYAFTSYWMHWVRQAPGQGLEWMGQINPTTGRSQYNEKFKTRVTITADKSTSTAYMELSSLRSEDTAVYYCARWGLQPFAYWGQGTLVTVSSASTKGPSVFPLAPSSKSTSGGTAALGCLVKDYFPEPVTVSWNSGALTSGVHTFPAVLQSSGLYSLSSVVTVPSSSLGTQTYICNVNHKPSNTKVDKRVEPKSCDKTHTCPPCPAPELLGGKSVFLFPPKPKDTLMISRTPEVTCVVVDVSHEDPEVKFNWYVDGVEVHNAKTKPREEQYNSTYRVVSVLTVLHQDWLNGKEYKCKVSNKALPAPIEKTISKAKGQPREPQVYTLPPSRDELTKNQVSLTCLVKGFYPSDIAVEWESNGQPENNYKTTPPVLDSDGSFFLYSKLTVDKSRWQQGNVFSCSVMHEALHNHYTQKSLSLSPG
light: DIQMTQSPSFLSASVGDRVTITCKASQDVSTAVAWYQQKPGKAPKLLIYSASYRYTGVPSRFSGSGSGTDFTLTISSLQPEDFATYYCQQHYSTPWTFGGGTKVEIKRTVAAPSVFIFPPSDEQLKSGTASVVCLLNNFYPREAKVQWKVDNALQSGNSQESVTEQDSKDSTYSLSSTLTLSKADYEKHKVYACEVTHQGLSSPVTKSFNRGEC
notes: also called Y12XX-hz28-P238K; Y12XX-hz28 (Vh-hz14)
